Results from the supplement of paper PMC10567573.

B1: EPB41L3 (parent)
chain: SELGDYDPDECGSDYISEFRFAPN

Variants of: B1
Test: protein stability index of a GFP-peptide fusion (GPS, HEK-293T) (PSI 1-6); higher = more stable
Conditions: c terminus: a fixed tail appended
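Further: lentivirally expressed fusions sorted by FACS into six bins by GFP to DsRed ratio, PSI derived from sequencing read proportions per bin multiplied by bin number.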

Variant	protein stability index
SELGDYDPDSCGSDYISEFRFAPN	1.85
SELGDYDPDTCGSDYISEFRFAPN	1.85
SELGDYDPDGCGSDYISEFRFAPN	1.78
SELGDYDPDFCGSDYISEFRFAPN	1.55
SELGDYDPDNCGSDYISEFRFAPN	1.9
SELGDYDPDPCGSDYISEFRFAPN	2.04
SELGDYDPDACGSDYISEFRFAPN	1.88
SELGDYDPDECGSDYISEFRFAVN	2.53
SELGDYDPDECGSDYISEFRFANN	2.42
SELGDYDPDECGSDYISEFRFAYN	2.89
SELGDYDPDECGSDYISEFRFAGN	2.37
SELGDYDPDECGSDYISEFRFADN	4
SELGDYDPDECGSDYISEFRFASN	2.51
SELGDYDPDECGSDYISEFRFAHN	2.44
SELGDYDPDECGSDYISEFRFAEN	4.66
SELGDYDPDECGSDYISEFRFAAN	2.48
SELGDYDPDECGSDYISEFRFAFN	2.96
SELGDYDPDECGSDYISEFRFARN	1.53
SELGDYDPDECGDDYISEFRFAPN	2.7
SELGDYDPDECGRDYISEFRFAPN	1.95
SELGDYDPDECGEDYISEFRFAPN	2.59
SESGDYDPDECGSDYISEFRFAPN	2.67
SETGDYDPDECGSDYISEFRFAPN	2.2
SEAGDYDPDECGSDYISEFRFAPN	2.05

Variant	protein stability index
SEEGDYDPDECGSDYISEFRFAPN	1.88
SEMGDYDPDECGSDYISEFRFAPN	2.02
SEWGDYDPDECGSDYISEFRFAPN	1.91
SERGDYDPDECGSDYISEFRFAPN	2.03
SEVGDYDPDECGSDYISEFRFAPN	2.33
SEGGDYDPDECGSDYISEFRFAPN	2.05
SEYGDYDPDECGSDYISEFRFAPN	1.9
SEHGDYDPDECGSDYISEFRFAPN	1.74
SEDGDYDPDECGSDYISEFRFAPN	2.66
SELGDYDPDECGSDYISLFRFAPN	2.45
SELGDYDPDECGSDYISHFRFAPN	2.37
SELGDYDPDECGSDYISSFRFAPN	2.15
SELGDYDPDECGSDYISCFRFAPN	2.2
SELGDYDPDECGSDYISQFRFAPN	1.53
SELGDYDPDECGSDYISDFRFAPN	1.83
SELGDYDPDECGSDYISYFRFAPN	1.67
SELGDYDPDECGSDYISFFRFAPN	2.17
SELGDYDPDECGSYYISEFRFAPN	2.11
SELGDYDPDECGSWYISEFRFAPN	1.66
SELGDYDPDECGSSYISEFRFAPN	1.61
SELGDYDPDECGSIYISEFRFAPN	2.32
SELGDYDPDECGSLYISEFRFAPN	2.41
SELGDYDPDECGSCYISEFRFAPN	1.89
SELGDYKPDECGSDYISEFRFAPN	1.14

Variant	protein stability index
SELGDYNPDECGSDYISEFRFAPN	1.68
SELGDYLPDECGSDYISEFRFAPN	1.56
SELGDYDPDECGSDYIWEFRFAPN	1.76
SELGDYDPDECGSDYIEEFRFAPN	3.88
SELGDYDPDECGSDYIAEFRFAPN	2.33
SELGDYDPDECGSDYILEFRFAPN	2.68
SELGDYDPDECGSDYIKEFRFAPN	2.32
SELGDYDPDECGSDYIIEFRFAPN	1.94
SELGDYDPDECGSDYITEFRFAPN	1.61
SELGMYDPDECGSDYISEFRFAPN	1.71
SELGGYDPDECGSDYISEFRFAPN	2.26
SELGNYDPDECGSDYISEFRFAPN	1.99
SELGVYDPDECGSDYISEFRFAPN	1.51
SELGKYDPDECGSDYISEFRFAPN	2.17
SELGDYDPDECGSDYISEFYFAPN	3.75
SELGDYDPDECGSDYISEFNFAPN	4.54
SELGDYDPDECGSDYISEFHFAPN	4.32
SELGDYDPDECGSDYISEFKFAPN	4.53
SELGDYDPDECGSDYISEFAFAPN	4.25
SELGDYDPDECGSDYISEFCFAPN	4.56
SELGDYDPDECGSDYISEFMFAPN	3.92
SELGDYDPDECGSDYISEFPFAPN	4.81
SELGDYDPDECGSDYISEFDFAPN	4.72
SELGDYDPDECGSDYISEFGFAPN	4.79

Variant	protein stability index
SELWDYDPDECGSDYISEFRFAPN	1.7
SELDDYDPDECGSDYISEFRFAPN	2.35
SELSDYDPDECGSDYISEFRFAPN	2.19
SELYDYDPDECGSDYISEFRFAPN	2.12
SELMDYDPDECGSDYISEFRFAPN	2.12
SELIDYDPDECGSDYISEFRFAPN	1.95
SELTDYDPDECGSDYISEFRFAPN	2.39
SELGDYDPDECGSDYISEFRFRPN	4.12
SELGDYDPDECGSDYISEFRFYPN	3.51
SELGDYDPDECGSDYISEFRFGPN	4.21
SELGDYDPDECGSDYISEFRFFPN	3.5
SELGDYDPDECGSDYISEFRFCPN	2.59
SELGDYDPDECGSDYISEFRFSPN	3.33
SELGDYDPDECGSDYISEFRFNPN	3.46
SELGDYDPDECGSDYISEFRFIPN	2.24
SELGDYDPDECGSDYISEFRFHPN	2.13
SELGDYDPDECGSDYISEFRFVPN	3.42
SELGDYDPDECGSDYISEFRFPPN	4
SELGDYDPDECGSDYISEFRFQPN	2.39
SELGDYDPDECGSDYISEFRFLPN	3.73
SELGDYDPSECGSDYISEFRFAPN	2.01
SELGDYDPKECGSDYISEFRFAPN	2.05
SELGDYDPQECGSDYISEFRFAPN	2.25
SELGDYDPIECGSDYISEFRFAPN	1.32

Variant	protein stability index
SELGDYDPWECGSDYISEFRFAPN	1.63
SELGDYDPLECGSDYISEFRFAPN	1.84
SELGDYDPRECGSDYISEFRFAPN	2.12
SELGDYDPMECGSDYISEFRFAPN	2.01
SELGDYDPEECGSDYISEFRFAPN	2.4
SELGDYDPFECGSDYISEFRFAPN	1.95
SELGDYDPPECGSDYISEFRFAPN	1.41
SELGDYDPTECGSDYISEFRFAPN	1.47
SELGDYDPDECGSDYISENRFAPN	5.06
SELGDYDPDECGSDYISESRFAPN	5.13
SELGDYDPDECGSDYISETRFAPN	4.97
SELGDYDPDECGSDYISECRFAPN	4.68
SELGDYDPDECGSDYISEQRFAPN	5.04
SELGDYDPDECGSDYISEARFAPN	4.66
SELGDYDPDECGSDYISEKRFAPN	4.83
SELGDYDPDECGSDYISEYRFAPN	4.57
SELGDYDPDECGSDYISEERFAPN	5.42
SELGDYDPDECGSDYISEGRFAPN	4.99
SELGDYDPDECGSDYISEFRFAPG	2.33
SELGDYDPDECGSDYISEFRFAPP	2.84
SELGDYDPDECGSDYISEFRFAPQ	2.09
SELGDYDPDECGSDYISEFRFAPT	2.12
SELGDYDPDECGSDYISEFRFAPW	2.45
SELGDYDPDECGSDYISEFRFAPR	2.44

Variant	protein stability index
SELGDYDPDETGSDYISEFRFAPN	1.94
SELGDYDPDEAGSDYISEFRFAPN	2.02
SELGDYDPDEKGSDYISEFRFAPN	2.26
SELGDYDPDECGSDGISEFRFAPN	3.75
SELGDYDPDECGSDHISEFRFAPN	2.87
SELGDYDPDECGSDSISEFRFAPN	3.43
SELGDYDPDECGSDMISEFRFAPN	2.91
SELGDYDPDECGSDVISEFRFAPN	2.52
SELGDYDPDECGSDEISEFRFAPN	4.13
SELGDYDPDECGSDWISEFRFAPN	1.97
SELGDYDPDECGSDAISEFRFAPN	2.46
SELGDYDPDECGSDNISEFRFAPN	4.06
SELGDYDPDECGSDTISEFRFAPN	2.7
SELGDYDPDECGSDIISEFRFAPN	2.5
SELGDADPDECGSDYISEFRFAPN	2.46
SELGDHDPDECGSDYISEFRFAPN	1.73
SELGDDDPDECGSDYISEFRFAPN	2.49
SELGDWDPDECGSDYISEFRFAPN	2.31
SELGDPDPDECGSDYISEFRFAPN	2.13
SELGDCDPDECGSDYISEFRFAPN	2.27
SELGDMDPDECGSDYISEFRFAPN	1.98
SELGDQDPDECGSDYISEFRFAPN	2.11
SELGDLDPDECGSDYISEFRFAPN	2.19
SELGDYDPDECGSDYISEFRLAPN	4.61

Variant	protein stability index
SELGDYDPDECGSDYISEFREAPN	4.78
SELGDYDPDECGSDYISEFRHAPN	4.17
SELGDYDPDECGSDYISEFRRAPN	4.64
SELGDYDPDECGSDYISEFRCAPN	4.69
SFLGDYDPDECGSDYISEFRFAPN	2.14
SKLGDYDPDECGSDYISEFRFAPN	1.94
SWLGDYDPDECGSDYISEFRFAPN	1.77
STLGDYDPDECGSDYISEFRFAPN	1.56
SPLGDYDPDECGSDYISEFRFAPN	2.54
SSLGDYDPDECGSDYISEFRFAPN	1.68
SHLGDYDPDECGSDYISEFRFAPN	1.9
SALGDYDPDECGSDYISEFRFAPN	1.61
SYLGDYDPDECGSDYISEFRFAPN	2.07
SCLGDYDPDECGSDYISEFRFAPN	2.19
EELGDYDPDECGSDYISEFRFAPN	2.29
KELGDYDPDECGSDYISEFRFAPN	2.35
AELGDYDPDECGSDYISEFRFAPN	1.81
PELGDYDPDECGSDYISEFRFAPN	1.89
MELGDYDPDECGSDYISEFRFAPN	2.8
HELGDYDPDECGSDYISEFRFAPN	1.67
TELGDYDPDECGSDYISEFRFAPN	2.5
RELGDYDPDECGSDYISEFRFAPN	1.85
SELGDYDPDECGSDYGSEFRFAPN	4.45
SELGDYDPDECGSDYTSEFRFAPN	3.8

Variant	protein stability index
SELGDYDPDECGSDYKSEFRFAPN	3.37
SELGDYDPDECGSDYESEFRFAPN	4.6
SELGDYDPDECGSDYQSEFRFAPN	3.81
SELGDYDPDECGSDYRSEFRFAPN	3.47
SELGDYDPDECGSDYFSEFRFAPN	2.26
SELGDYDPDECGSDYMSEFRFAPN	2.24
SELGDYDPDECGSDYCSEFRFAPN	3.41
SELGDYDDDECGSDYISEFRFAPN	2.13
SELGDYDNDECGSDYISEFRFAPN	2.19
SELGDYDIDECGSDYISEFRFAPN	1.77
SELGDYDGDECGSDYISEFRFAPN	2.06
SELGDYDLDECGSDYISEFRFAPN	2.26
SELGDYDPDECPSDYISEFRFAPN	2.12
SELGDYDPDECNSDYISEFRFAPN	2
SELGDYDPDECISDYISEFRFAPN	2.16
SELGDYDPDECWSDYISEFRFAPN	1.83
SELGDYDPDECQSDYISEFRFAPN	2.04
SELGDYDPDECVSDYISEFRFAPN	1.95
SELGDYDPDECYSDYISEFRFAPN	2.32
SELGDYDPDECMSDYISEFRFAPN	1.88
